Reference: the DeepSol protein solubility set

Assay: soluble on expression in E. coli; label from the status in PepcDB or PDB records

For “MYQNFVTKHDTAIQTSRFSVTGNVIPAAPTGNIPVINGGSITAERAVVNLYANMNVSTSSDGSFIVAMKVDTSPTDPNCVISAGVNLSFAGTSYPIVGIVRFESASEQPTSIAGSEVEHYPIEMSVGSGGVCSARDCATVDIHPRTSGNNVFVGVICSSAKWTSGRVIGTIATTQVIHEYQVLQPLK”, the “soluble on expression in E. coli” value was “soluble”.

For “CPVNWVEHERSCYWFSRSGKAWADADNYCRLEDAHLVVVTSWEEQKFVQHHIGPVNTWMGLHDQNGPWKWVDGTDYETGFKNWRPEQPDDWYGHGLGGGEDCAHFTDDGRWNDDVCQRPYRWVCETEL”, the “soluble on expression in E. coli” value was “soluble”.

For “MSLTELLNNQDYRKEALKEIIRELHRGKSVEEVKARFNELIKDVAPAEISLMEQALINEGLPVEEVQRLCDVHAAVFKESLERAPQPETIPGHPVHTFKEENRALEDLMIREIQPLLAELRRANPDVEKDLAIKLAEKLNLLQDVNKHYSRKENLLFPYLEKYQIVGPPKVMWGVDDEIRDLLKEARDLAVNYVPDKKEELITRTEAALAKIKEMIFKEERILFPMALETLTEDEWYRIMLDSASIGYCLIEPREDWRPAQVKLDQKETVASEETRGYIKFATGILTPREISLIFDHLPVDITFVDKDNVVKYFSNTRERIFTRSRAVIGRRVENCHPPASVQVVEKLIADFKSGRKDREAFWLHLGDKYVFIQYFAVRDEKGDFAGTLEVTMDLKPLQAISGEKRIMDEGHHHHHH”, the “soluble on expression in E. coli” value was “soluble”.

In the case of “MHHHHHHSSGRENLYFQGSGTIYGWGHNHRGQLGGIEGAKVKVPTPCEALATLRPVQLIGGEQTLFAVTADGKLYATGYGAGGRLGIGGTESVSTPTLLESIQHVFIKKVAVNSGGKHCLALSSEGEVYSWGEAEDGKLGHGNRSPCDRPRVIESLRGIEVVDVAAGGAHSACVTAAGDLYTWGKGRYGRLGHSDSEDQLKPKLVEALQGHRVVDIACGSGDAQTLCLTDDDTVWSWGDGDYGKLGRGGSDGCKVPMKIDSLTGLGVVKVECGSQFSVALTKSGAVYTWGKGDYHRLGHGSDDHVRRPRQVQGLQGKKVIAIATGSLHCVCCTEDGEVYTWGDNDEGQLGDGTTNAIQRPRLVAALQGKKVNRVACGSAHTLAWSTSKP”, the “soluble on expression in E. coli” value is reported as “soluble”.

With “MGSDKIHHHHHHMYNVQTYKEKISRFEEVCFNWELKRASIVLNKRFSSYNSSAKVLLDAGFSLYAAKIEVCRELNNGEELERQYTYRSIAEGTLSEKDFKYIWEQCMSGSGNQTSILTIDEHFYSVQTELDKGWEKSCIVFYDKNEPIGMSIPHIETGTESEGRLFYFGVMLYYRGKGIASRLHLQSLHMLKEMGATYYIGSTHTSNEKMQRIFWRNNCSLKTEIELYYKIFNEG” the “soluble on expression in E. coli” value was “not soluble”.

For “MGGWIRNIGRYLSYLVDDTFEEYAYDVVDGIAKARTQEELLEGVYKALRLAPKLKKKAESKGCPPPRIPSPEDIEALEEKVEQLSNPKDLRKLAVSLALWAFASWNNCPKKGKGTEGGVELEHHHHHH”, the “soluble on expression in E. coli” value was “soluble”.

In the case of “MTGKKTLSIVGASGYAGGEFLRLALSHPYLEVKQVTSRRFAGEPVHFVHPNLRGRTNLKFVPPEKLEPADILVLALPHGVFAREFDRYSALAPVLVDLSADFRLKDPELYRRYYGEHPRPDLLGRFVYAVPELYREALKGADWIAGAGCNATATLLGLYPLLKAGVLKPTPIFVTLLISTSAGGAEASPASHHPERAGSIRVYKPTGHRHTAEVVENLPGRPEVHLTAIATDRVRGILMTAQCFVQDGWSERDVWQAYREAYAGEPFIRLVKQKKGVHRYPDPRFVQGTNYADIGFELEEDTGRLVVMTAIDNLVKGTAGHALQALNVRMGWPETLGLDFPGLHP”, the “soluble on expression in E. coli” value is reported as “soluble”.

In the case of “MAHHHHHHMIEHLNLWLPWKHRKPMWPYPQKNAMPSVFPLEFTTLGEGVVTFSCLCLAAVLAVQEVLTPSHGFPTVLVAFPHKRGGVSSALLYSKVVEAFIQSLRSESALVEAVTVRHMARAALQALNTIINACFSEQYPLYTMAQLLLSEGKAEAKDATHDGGMLGAVDLVLSIDPLSCGGDILHSETQLVMPTPFAIRSVGRCTPGAARQQTNVKLPSALEVTDAALLQMPGAGESSTGRRLSACILERSQVLLTLLK”, the “soluble on expression in E. coli” value is reported as “not soluble”.

In the case of “MAHHHHHHMSSESYAIGQEELVYDRMFRVMRTVGEMMRDRKYQVPSSIIPETVGQFCEQYVDREGRRIYRERMTVPCERVGGTHRSRAMVFFASELGMEGMKGYCQTAMDANCERVIIVTHGKVNATVKRYVDCINRSGTGQKVQLFDEDDLVVNITHHELVPKHTQLEDEEVKEMLEAHSLELNMLPRILSTDPVAAYLGLERGRVVRIERKSVSAGFYVTYRQVV”, the “soluble on expression in E. coli” value is reported as “not soluble”.

In the case of “MSSRNNPARVAIVMGSKSDWATMQFAAEIFEILDVPHHVEVVSAHRTPDKLFSFAETAEENGYQVIIAGAGGAAHLPGMIAAKTLVPVLGVPVQSAALSGVDSLYSIVQMPRGIPVGTLAIGKAGAANAALLAAQILAQHDAELHQRIADWRKAQTDEVLENPDPRGTL”, the “soluble on expression in E. coli” value is reported as “not soluble”.

With “MYPHIHRYKFESKNTNRHNHKIIGYTDNMIGIEAFHIHAYYGISSYNGHTHYFSGFTGLPIKTENGHIHRIEGILESASDHEHVYRNYTDENIEYISHSILKHAYV” the “soluble on expression in E. coli” value was “not soluble”.

With “MRRVETDSTGQIEVDNDKYWGAQTQRSIEHFSIGSDLMPIEVIKALAIIKKAAAITNHQLGILARTKKEIIIKVADEIIAGELDEHFPLRVLMTGSGTQSNMNVNEVISNRAIELLGGKKGSKNPIHPNDDVNMSQSSNDTFPSAMYIATALEINNRLLPALEYMQQQLADKAKQWDDIVKIGRTHMQDAVPLTLGQEFSGYAALLENNIQRIKDTLKYVYQLALGGTAVGTGLNAPDGFAEITAKYIATITSLAFVSATNKFEVQGSHDALVAVMGQLKTLANSLFKIANDIRLLSCGPRAGFHELLIPENEPGSSIMPGKVNPTQCEAMAMVAAQVIGYDVAVGIGGSAGYLEMNVYKPLIIFNIIQSIKIISDSCVNFTKYLLEGMKPNHDKIEFYLKNSLMLVTALSPVIGYDKAAKLAHYAEQKNISLAEANQELKFLSKEEFDKVVDPYKMTKGGIL” the “soluble on expression in E. coli” value was “not soluble”.

With “MVKKEFHLTHTFKNVSKLEDGKTLYGPEEEHFNIPWQLSFCRKEEFVGVFLRCLRPTDGIVPWEINADCILKLTSSAGKCLSHSSTYIFQSIGGFGRRKFVSWDTLVKDHLVNDSIIMEATVMITKMTGISKKKLRSFEKSEEQFSDVVLAVEDKKFFVLRKFLASHSSYFKSLLLGTFAEADKSEIKHEAINSIDFQNFLEVLYGEPVIDDDDVEGILHLAHMYDVPVAIRKCEEFLIEKSEKSMRDQLEIAKKYQLDNLKKSCLSKVNTVEEIKAALMCDLADMDPTVVAALFRKSLALL” the “soluble on expression in E. coli” value was “not soluble”.

In the case of “GMTMPIFNISDDVDLVPAMPAEGRDGGSYRRQIWQDDVENGTIVAVWMAEPGIYNYAGRDLEETFVVVEGEALYSQADADPVKIGPGSIVSIAKGVPSRLEILSSFRKLATVIPKP”, the “soluble on expression in E. coli” value is reported as “soluble”.

With “MTIIINMRSGVDEVKLRIAAKLIREGKLVAFPTETVYGLGADALNERAVRRIFEAKGRPADNPLILHIAKFSQVYELAREVPEEAKVLVERFWPGPLTIVLPRKDVVPDVTTGGLDTVAIRMPANEIALKLIELSGKPIAAPSANISGKPSPTSAEHVADDFYGKIECIIDGGETRIGVESTVIDLTEHPPVLLRPGGLPLEEIEKVIGKVRIHPAVFGKKVDTPKSPGMKYKHYAPNAEVIVVEGPREKVKGKITELVKELKERGKKVGVIGSESYNADEFFFLGSSVEEVAKNLFKALRYMDKAGVDVVIAEGVEERGLGLAVMNRLRKASGYKIVKA” the “soluble on expression in E. coli” value was “soluble”.

In the case of “KTKVGNQSPDVRFGLQNTFKIKDFTVNIDMDGAIGGTLISTTTQKMWWGGKHPKSTMYRQEEYDNGGKPVYVPEGVNIVSGEVTYDVNGNIVSDTRVYKKNETAVNIQTWAQNYPYRAVVRTEESELFANTFSRSFLKLRRVAVTYDLTKFIQSQFIKGLDVTVFGNNLAVLKKTPYLDPDFGASDGDLQDPSARYVGVSANIKF”, the “soluble on expression in E. coli” value is reported as “not soluble”.

For “MGSDKIHHHHHHMEFWESSFIEKQTMWGFEPTESAILAKDFFLEKNVKDILVPGIGYGRNAKVFIENSINVTGIEISKTAIDLARENGLEDVSIYHGSVNEMPFDNKLYDGIFSHALLHLLNDQEREGFIENCYNQLKPGAYMVFTTVSKKAPMYGKGKQLDKDYYEIMEGVKMFFYDSESIKKDFNQYGLVQVSEIDEPNKNMANKPSINFLTIKCKKEL”, the “soluble on expression in E. coli” value was “not soluble”.
